Consider 3 molecules from US8343491B2, “Anti-HIMF antibodies to treat lung diseases” (The Johns Hopkins University, priority 2006, dated 2013).

Entries after “also recorded” stand apart in the source; their conditions may differ.

Experiment [1] concerns bone marrow cells. Description: Cell migration assay (Transwell). In kind it is cell-based, mouse. Here is the method:
FIGS. 6A-6D. CD45 positive cell migration was stimulated by HIMF and inhibited by BTK inhibitor. Bone marrow cells were cultured on cover glass in 12 well plates as described in FIG. 5A-5B. The cells were then treated with BSA (FIG. 6A) or HIMF (FIG. 6B and FIG. 6C) for 4 days and fixed with pre-cooled methanol before immunocytochemistry with the indicated first antibodies. DAPI staining was used to show the nuclei. […] 5×10^5 bone marrow cells in 2% fetal bovine serum DMEM culture medium were transferred to each transwell in the presence of 50 nM BSA, HIMF, or HIMF plus 25 μM LFM-A13, respectively. The cells were cultured for 6 hours, fixed in pre-cooled methanol and stained by Coomassie Blue solution. The cells growing on the surface of the membrane were removed after staining. Bone marrow cell migration was induced by HIMF and this induction was inhibited by BTK inhibitor LFM-A13 (FIG. 6D).
Cell migration assay. Bone marrow cells were detached with trypsin-EDTA, washed in serum-free medium, and then counted and adjusted to 10^6 cells/ml. […]
BTK stimulated the migration of bone marrow cells. […] Cell migration was further determined by partial trypsin digestion culture, leaving the cells to grow in colonies on a cover glass.

Experiment [2] concerns hindlimb ischemia tissues. In words: Mouse hindlimb ischemic model, agarose gel implant. In kind it is in vivo. The settings on record: 100 nM HIMF in 2% agarose gel implanted, two weeks, versus BSA gel. As for the experimental part: FIGS. 7A-7B. […] Mouse hind limb ischemia model was established and agarose gel containing 100 nM BSA or 100 nM HIMF (gels were cut into 2×5×8 mm pieces) were buried subcutaneously at the sites of ischemia. Two weeks later, the ischemic tissues were collected for immunocytochemistry. The tissue treated by HIMF (FIG. 7B) was shown increasing in CD34 positive cells comparing to that of BSA treated tissue (FIG. 7A).
Mouse hindlimb ischemic model. Animals were subjected to left femoral artery ligation and excision to create unilateral hind limb ischemia. For each animal, 25 mg/kg ketamine plus 10 mg/kg xylazine was injected subcutaneously. Skin incisions were performed at the middle portion of the left hind limb overlying the femoral artery. The femoral artery was gently isolated. First the proximal portion and then the distal portion of the femoral artery were ligated, and then other arterial branches as well as veins were dissected free and excised. The overlying skin was closed using two surgical staples. Tissue in the hypoxia area was removed and homogenized in TBST buffer two weeks after the operation.
HIMF promoted angiogenesis in hypoxic tissues. Hypoxia can induce pulmonary artery adventitial remodeling and neovascularization. […]

Experiment [3] has as its system bone marrow cells. Description: Cell migration out of colony (partial trypsin digestion culture). In kind it is cell-based, mouse. Conditions: 50 nM HIMF, 2% FBS DMEM, four days. Here is the method:
FIGS. 5A-5B. HIMF stimulated bone marrow cell migration. Bone marrow cells were partially digested by trypsin-EDTA solution, washed by PBS and then sucked up and transferred to twelve well plates using a 1000 μl tip. The cells were cultured in 2% fetal bovine serum DMEM with 50 nM BSA or HIMF for four days. More cells migrated out of the original cell colony in the presence of HIMF than those in BSA (FIG. 5A). 5×10^5 bone marrow cells were cultured in transwell plates in the presence of 50 nM BSA or HIMF. The cells were cultured overnight, fixed in pre-cooled methanol and stained by Coomassie Blue solution. The cells growing on the surface of the membrane were removed after staining (FIG. 5B). A Nikon Eclipse microscope was used for the imaging.
BTK stimulated the migration of bone marrow cells. To test whether HIMF stimulates the migration of bone marrow cells, bone marrow cells were cultured in transwell plates in the presence of […] BSA or HIMF. The cells were cultured overnight, fixed in methanol and stained by Coomassie Blue solution. Cells growing on the surface of the membrane were removed by cotton tipped applicators before imaging. […] Cell migration was further determined by partial trypsin digestion culture, leaving the cells to grow in colonies on a cover glass.

The target in experiment [4] is T1, BTK (Mus musculus, UniProt P35991).
T1 construct: incubated with bone marrow cell lysate or hypoxia tissue homogenate for three hours; endogenous in cells; host or cells: lysate of cultured mouse bone marrow cells; in the second result, homogenate of mouse hind limb hypoxic tissue
Description: Protein phosphorylation assay (BTK Y223) in bone marrow cells. Format: cell-based. Conditions: 50 nM HIMF, minutes. Here is the method: (§1) FIGS. 4A-4C. BTK self-phosphorylation in response to the treatment of HIMF. Three plates of primary cultured bone marrow cells that were passed from the same plate of cells were cultured to confluence and then treated with HIMF (5 minutes and 30 minutes), or without HIMF. The cell lysates were used for the Western blot. The membrane was first probed by anti-BTK phosphorylation (Y223) antibody and then was probed by anti-BTK antibody after stripping (FIG. 4A). Five plates of primary cultured bone marrow cells that were passed from same plates of cells were cultured to confluence and then treated with HIMF (2.5, 5, 10 and 20 minutes respectively) or without HIMF. The cell lysates were used for the Western blot. The membrane was first detected by anti-BTK phosphorylation (Y223) antibody and then by anti-tubulin antibody (FIG. 4B). The same samples were used for the detection of fyn phosphorylation (FIG. 4C). Phosphorylation of Y416 upregulates enzyme activity. Phosphorylation of Y528 negatively regulates enzyme activity.
(§2) Protein phosphorylation assays. […] The supernatants of the samples were quantified for protein concentration and subjected to electrophoresis on a 4-15% SDS-polyacrylamide gel (Bio-Rad). […]

In experiment [5] the test system is Fyn. Description: Fyn phosphorylation in bone marrow cells. Format: cell-based, mouse. The settings on record: bone marrow cells stimulated with HIMF. Here is the method: as §1, §2
Experiment [6] concerns the target T1, BTK. In words: BTK redistribution in bone marrow cells (immunofluorescence). Format: cell-based. The settings on record: 50 nM HIMF, 5 minutes. As for the experimental part: FIGS. 3A-3B. BTK redistribution in response to the stimulation of HIMF. Primary cultured bone marrow. Bone marrow cells were cultured on cover glass and then treated with 50 nM BSA (FIG. 3A) or HIMF (FIG. 3B) for five minutes. Cells were fixed by pre-cooled methanol before indirect immunofluorescence. BTK or FYN, a binding partner for BTK, was redistributed in bone marrow cells after the treatment of HIMF.
Immunofluorescence microscopy. Bone marrow or COS-7 cells were cultured on coverslips in DMEM containing 10% FBS and fixed in pre-cooled methanol for 5 minutes. The cells were then permeabilized with 0.2% Triton X-100 in PBS and blocked with 0.5% bovine serum albumin in PBS followed by incubation with the indicated antibodies. FITC-donkey anti-rabbit IgG and Rhodamine-donkey anti-mouse IgG were used as second antibodies. For transfection experiments, cells were cultured overnight and transfected with indicated constructs in serum-free medium for four hours and changed into DMEM containing 10% FBS overnight. Cells were fixed and stained as above. A 510 confocal microscope was used for the imaging.
Translocation of BTK in bone marrow cells in response to the stimulation of HIMF. […] The activation of BTK family tyrosine kinases will result in their stimulated translocation to membrane fractions (24). […]

In experiment [7] the target is T1, BTK. Description: GST pull-down assay. In kind it is binding. As for the experimental part:
FIGS. 1A-1B. BTK is a HIMF-binding molecule. GST-HIMF fusion protein and GST were incubated with glutathione-sepharose beads and then incubated with bone marrow cell lysate respectively in TBST buffer at 4° C. for three hours. The beads were washed five times by TBST and loading buffer was added to the samples. After electrophoresis, the gel was stained by Coomassie Blue. […] GST-HIMF and GST were first bonded to glutathione sepharose and then incubated with the lysate of bone marrow cells (left) or homogenate of ischemic tissue (right) at 4° C. for three hours and then washed by TBST solution three times. After SDS-PAGE and transfer to membrane, the samples were detected by anti-BTK and anti-GST antibodies (FIG. 1B).
GST pull-down assay. Bone marrow cells were cultured in ten 150×25 mm plates until confluence and collected for lysate using TBST buffer. Lysate from ten plates of bone marrow cells was used for HIMF-binding partner screening assay. Hypoxia tissue homogenate was prepared as described above. BL21 bacterial lysates for GST and GST-HIMF were first incubated with glutathione agarose in 0.1% TBST buffer for three hours and then washed three times by 0.1% TBST buffer. The GST and GST-HIMF binding glutathione agaroses were incubated with bone marrow cell lysate or hypoxia tissue homogenate for three hours and then washed 3-5 times before SDS-PAGE.

T1 sequence (P35991 whole entry): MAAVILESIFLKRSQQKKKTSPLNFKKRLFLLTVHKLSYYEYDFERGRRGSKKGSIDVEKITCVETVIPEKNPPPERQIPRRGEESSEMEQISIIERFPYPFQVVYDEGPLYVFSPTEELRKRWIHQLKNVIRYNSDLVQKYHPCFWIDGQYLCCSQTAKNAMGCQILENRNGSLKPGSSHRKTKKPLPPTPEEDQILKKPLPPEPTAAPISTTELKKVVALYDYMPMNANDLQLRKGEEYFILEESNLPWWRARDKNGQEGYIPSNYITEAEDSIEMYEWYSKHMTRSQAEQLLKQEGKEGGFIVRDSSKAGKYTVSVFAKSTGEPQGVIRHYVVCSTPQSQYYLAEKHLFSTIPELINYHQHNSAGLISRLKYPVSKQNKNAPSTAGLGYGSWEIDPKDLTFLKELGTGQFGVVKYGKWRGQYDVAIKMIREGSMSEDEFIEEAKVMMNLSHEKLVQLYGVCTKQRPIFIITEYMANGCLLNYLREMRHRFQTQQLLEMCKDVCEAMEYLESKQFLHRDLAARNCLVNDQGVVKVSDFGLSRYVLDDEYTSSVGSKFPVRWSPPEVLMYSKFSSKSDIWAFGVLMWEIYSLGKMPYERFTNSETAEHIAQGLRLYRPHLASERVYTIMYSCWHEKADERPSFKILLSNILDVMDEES

Consider `C/C(O)=C(\C#N)C(=O)Nc1cc(Br)ccc1Br` [LFM-A13, reference compound], for which the “Inhibition of HIMF-induced bone marrow cell migration” value in experiment [1] (25 μM LFM-A13 plus 50 nM HIMF, transwell, 6 hours) is “inhibited; also recorded: completely blocked”.

B1: HIMF: Hypoxia-induced mitogenic factor protein (Flag-tagged mouse HIMF) applied to cells and tissue (protein)
chain: DETIEIIVENKVKELLANPANYPSTVTKTLSCTSVKTMNRWASCPAGMTATGCACGFACGSWEIQSGDTCNCLCLLVDWTTARCCQLS
Consider B1, for which, in experiment [2], the “Angiogenesis in hindlimb ischemia tissues” value was “stimulated angiogenesis” and the “CD34 positive cells in ischemic tissue” value is recorded as “increased”. Further, in experiment [3], the “Bone marrow cell migration out of the colony versus BSA” value is “more bone marrow cells were stimulated to migrate out of the colony”. Also, the “BTK self-phosphorylation (Y223)” value in experiment [4] was “stimulate the self-phosphorylation of BTK”. Besides, the “Fyn activity (phosphorylation Y416/Y528)” value in experiment [5] is reported as “not changed in activity”. Besides, in experiment [6], the “BTK translocation in bone marrow cells” value is reported as “rapidly induced recruitment of BTK to the leading edge of cells”. Moreover, the “Bone marrow cell migration (transwell) versus BSA” value in experiment [1] (50 nM HIMF, overnight) was “markedly promoted; also recorded: More cells migrated out of the chamber”.

B2: GST-HIMF: GST fusion protein of mouse HIMF expressed in BL21 cells (protein)
chain: DETIEIIVENKVKELLANPANYPSTVTKTLSCTSVKTMNRWASCPAGMTATGCACGFACGSWEIQSGDTCNCLCLLVDWTTARCCQLS
modifications: left off: a dimerising Fc or GST
notes: GST fusion protein of mouse HIMF expressed in BL21 cells
On to B2, for which, in experiment [7] (bone marrow cell lysate, GST control did not), the “Pull-down of BTK from bone marrow cell lysate” value is “pulled down BTK”. The “Binding of BTK from hind limb hypoxic tissue homogenate” value in experiment [7] (homogenate of mouse hind limb hypoxic tissue, not to GST) is reported as “shown to bind”.
